Data from PMC3135484 (Molecular Biology of the Cell, 2011).

B2: GST-tagged Vam3 (Vam3 1-260, ΔTMD) (domain or fragment)
chain: MSFFDIEAQSSKGNSQQEPQFSTNQKTKELSNLIETFAEQSRVLEKECTKIGSKRDSKELRYKIETELIPNCTSVRDKIESNILIHQNGKLSADFKNLKTKYQSLQQSYNQRKSLFPLKTPISPGTSKERKDIHPRTEAVRQDPESSYISIKVNEQSPLLHNEGQHQLQLQEEQEQQQQGLSQEELDFQTIIHQERSQQIGRIHTAVQEVNAIFHQLGSLVKEQGEQVTTIDENISHLHDNMQNANKQLTRADQHQRDRN

Experiments:
Assay in all cases: pull-down
[1] = biological target: HOPS (homotypic fusion and protein sorting) complex (yeast (S. cerevisiae), UniProt P38959;Q07468;P20795;P12868;Q03308;P27801)
[2] = biological target: T1, Vps16 (individual HOPS subunit, TAP-purified) (yeast (S. cerevisiae), UniProt Q03308 1-798)
T1 sequence: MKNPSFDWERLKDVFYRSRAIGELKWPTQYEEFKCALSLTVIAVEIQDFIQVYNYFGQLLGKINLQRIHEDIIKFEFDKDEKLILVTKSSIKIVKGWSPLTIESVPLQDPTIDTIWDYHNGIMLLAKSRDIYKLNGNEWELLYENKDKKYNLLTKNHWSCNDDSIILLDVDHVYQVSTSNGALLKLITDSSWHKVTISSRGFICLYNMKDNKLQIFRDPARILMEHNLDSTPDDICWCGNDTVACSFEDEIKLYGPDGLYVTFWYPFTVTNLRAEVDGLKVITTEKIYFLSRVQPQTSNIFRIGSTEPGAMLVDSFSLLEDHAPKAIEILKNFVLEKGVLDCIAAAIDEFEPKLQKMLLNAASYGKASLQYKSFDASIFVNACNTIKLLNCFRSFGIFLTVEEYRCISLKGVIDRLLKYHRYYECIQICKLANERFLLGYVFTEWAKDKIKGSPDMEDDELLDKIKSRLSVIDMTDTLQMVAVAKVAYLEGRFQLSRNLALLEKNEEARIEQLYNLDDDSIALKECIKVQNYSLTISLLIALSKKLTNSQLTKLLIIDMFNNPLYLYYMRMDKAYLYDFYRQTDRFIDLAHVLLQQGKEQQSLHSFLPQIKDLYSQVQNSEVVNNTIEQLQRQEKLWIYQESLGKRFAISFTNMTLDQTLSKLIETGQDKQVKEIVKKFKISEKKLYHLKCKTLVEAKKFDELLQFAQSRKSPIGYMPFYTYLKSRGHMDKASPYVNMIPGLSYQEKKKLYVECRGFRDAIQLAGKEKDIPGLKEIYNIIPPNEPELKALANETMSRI

His-tagged Vam7 (1-316) = biological target: T2, His-tagged Vam7 (1-316) (S. cerevisiae, UniProt P32912 1-316)
T2 sequence: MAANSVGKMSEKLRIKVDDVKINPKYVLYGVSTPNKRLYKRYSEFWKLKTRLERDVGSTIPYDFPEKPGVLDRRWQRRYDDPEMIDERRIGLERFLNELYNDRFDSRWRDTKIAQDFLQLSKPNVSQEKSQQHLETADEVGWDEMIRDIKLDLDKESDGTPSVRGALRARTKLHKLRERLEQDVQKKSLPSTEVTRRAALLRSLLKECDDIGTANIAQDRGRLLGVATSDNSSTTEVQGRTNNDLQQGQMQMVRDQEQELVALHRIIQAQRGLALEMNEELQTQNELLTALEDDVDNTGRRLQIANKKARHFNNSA

[3] = biological target: B2

B1: GST-tagged Vam7 (1-316) (natural protein)
chain: MAANSVGKMSEKLRIKVDDVKINPKYVLYGVSTPNKRLYKRYSEFWKLKTRLERDVGSTIPYDFPEKPGVLDRRWQRRYDDPEMIDERRIGLERFLNELYNDRFDSRWRDTKIAQDFLQLSKPNVSQEKSQQHLETADEVGWDEMIRDIKLDLDKESDGTPSVRGALRARTKLHKLRERLEQDVQKKSLPSTEVTRRAALLRSLLKECDDIGTANIAQDRGRLLGVATSDNSSTTEVQGRTNNDLQQGQMQMVRDQEQELVALHRIIQAQRGLALEMNEELQTQNELLTALEDDVDNTGRRLQIANKKARHFNNSA
binding result [1]: binds
binding result [2]: binds

B2
binding result (His-tagged Vam7 (1-316)): binds

B3: GST-tagged Vam7 PX domain (1-129) (domain or fragment)
chain: MAANSVGKMSEKLRIKVDDVKINPKYVLYGVSTPNKRLYKRYSEFWKLKTRLERDVGSTIPYDFPEKPGVLDRRWQRRYDDPEMIDERRIGLERFLNELYNDRFDSRWRDTKIAQDFLQLSKPNVSQEK
binding result [1]: binds

B4: SNARE complex assembled on GST-Vam7 SD with Vam3, Vti1 and Ykt6 (complex)
chain 1: PSTEVTRRAALLRSLLKECDDIGTANIAQDRGRLLGVATSDNSSTTEVQGRTNNDLQQGQMQMVRDQEQELVALHRIIQAQRGLALEMNEELQTQNELLTALEDDVDNTGRRLQIANKKARHFNNSA
chain 2: MSFFDIEAQSSKGNSQQEPQFSTNQKTKELSNLIETFAEQSRVLEKECTKIGSKRDSKELRYKIETELIPNCTSVRDKIESNILIHQNGKLSADFKNLKTKYQSLQQSYNQRKSLFPLKTPISPGTSKERKDIHPRTEAVRQDPESSYISIKVNEQSPLLHNEGQHQLQLQEEQEQQQQGLSQEELDFQTIIHQERSQQIGRIHTAVQEVNAIFHQLGSLVKEQGEQVTTIDENISHLHDNMQNANKQLTRADQHQRDRNKCGK
chain 3: MSSLLISYESDFKTTLEQAKASLAEAPSQPLSQRNTTLKHVEQQQDELFDLLDQMDVEVNNSIGDASERATYKAKLREWKKTIQSDIKRPLQSLVDSGDRDRLFGDLNASNIDDDQRQQLLSNHAILQKSGDRLKDASRIANETEGIGSQIMMDLRSQRETLENARQTLFQADSYVDKSIKTLKTMTRR
chain 4: MRIYYIGVFRSGGEKALELSEVKDLSQFGFFERSSVGQFMTFFAETVASRTGAGQRQSIEEGNYIGHVYARSEGICGVLITDKEYPVRPAYTLLNKILDEYLVAHPKEEWADVTETNDALKMKQLDTYISKYQDPSQADAIMKVQQELDETKIVLHKTIENVLQRGEKLDNLVDKSESLTASSKMFYKQAKKSNSCCIIM
binding result [1]: binds

B5: Q-SNARE complex assembled on GST-Vam7 SD with Vam3 and Vti1 (complex)
chain 1: PSTEVTRRAALLRSLLKECDDIGTANIAQDRGRLLGVATSDNSSTTEVQGRTNNDLQQGQMQMVRDQEQELVALHRIIQAQRGLALEMNEELQTQNELLTALEDDVDNTGRRLQIANKKARHFNNSA
chain 2: MSFFDIEAQSSKGNSQQEPQFSTNQKTKELSNLIETFAEQSRVLEKECTKIGSKRDSKELRYKIETELIPNCTSVRDKIESNILIHQNGKLSADFKNLKTKYQSLQQSYNQRKSLFPLKTPISPGTSKERKDIHPRTEAVRQDPESSYISIKVNEQSPLLHNEGQHQLQLQEEQEQQQQGLSQEELDFQTIIHQERSQQIGRIHTAVQEVNAIFHQLGSLVKEQGEQVTTIDENISHLHDNMQNANKQLTRADQHQRDRNKCGK
chain 3: MSSLLISYESDFKTTLEQAKASLAEAPSQPLSQRNTTLKHVEQQQDELFDLLDQMDVEVNNSIGDASERATYKAKLREWKKTIQSDIKRPLQSLVDSGDRDRLFGDLNASNIDDDQRQQLLSNHAILQKSGDRLKDASRIANETEGIGSQIMMDLRSQRETLENARQTLFQADSYVDKSIKTLKTMTRR
binding result [1]: binds

B6: His-tagged Vti1 (1-189, ΔTMD) (domain or fragment)
chain: MSSLLISYESDFKTTLEQAKASLAEAPSQPLSQRNTTLKHVEQQQDELFDLLDQMDVEVNNSIGDASERATYKAKLREWKKTIQSDIKRPLQSLVDSGDRDRLFGDLNASNIDDDQRQQLLSNHAILQKSGDRLKDASRIANETEGIGSQIMMDLRSQRETLENARQTLFQADSYVDKSIKTLKTMTRR
binding result [3]: binds

B7: minimal SNARE complex assembled on GST-Vam7 SD with Vam3ΔN, Vti1 and Ykt6 (complex)
chain 1: PSTEVTRRAALLRSLLKECDDIGTANIAQDRGRLLGVATSDNSSTTEVQGRTNNDLQQGQMQMVRDQEQELVALHRIIQAQRGLALEMNEELQTQNELLTALEDDVDNTGRRLQIANKKARHFNNSA
chain 2: ESSYISIKVNEQSPLLHNEGQHQLQLQEEQEQQQQGLSQEELDFQTIIHQERSQQIGRIHTAVQEVNAIFHQLGSLVKEQGEQVTTIDENISHLHDNMQNANKQLTRADQHQRDRNKCGK
chain 3: MSSLLISYESDFKTTLEQAKASLAEAPSQPLSQRNTTLKHVEQQQDELFDLLDQMDVEVNNSIGDASERATYKAKLREWKKTIQSDIKRPLQSLVDSGDRDRLFGDLNASNIDDDQRQQLLSNHAILQKSGDRLKDASRIANETEGIGSQIMMDLRSQRETLENARQTLFQADSYVDKSIKTLKTMTRR
chain 4: MRIYYIGVFRSGGEKALELSEVKDLSQFGFFERSSVGQFMTFFAETVASRTGAGQRQSIEEGNYIGHVYARSEGICGVLITDKEYPVRPAYTLLNKILDEYLVAHPKEEWADVTETNDALKMKQLDTYISKYQDPSQADAIMKVQQELDETKIVLHKTIENVLQRGEKLDNLVDKSESLTASSKMFYKQAKKSNSCCIIM
binding result [1]: binds

B8: His-tagged Ykt6 (1-200) (natural protein)
chain: MRIYYIGVFRSGGEKALELSEVKDLSQFGFFERSSVGQFMTFFAETVASRTGAGQRQSIEEGNYIGHVYARSEGICGVLITDKEYPVRPAYTLLNKILDEYLVAHPKEEWADVTETNDALKMKQLDTYISKYQDPSQADAIMKVQQELDETKIVLHKTIENVLQRGEKLDNLVDKSESLTASSKMFYKQAKKSNSCCIIM
binding result [3]: binds
